Assay results: patent publication EP4269437A1
Values joined by “and” are separate entries in the source; they are usually repeats but may differ in a detail not shown here. Equal values may be shown once.

What was measured:
PD-1 [1] = biological target: PD-1 (UniProt Q15116); assay: blocking ELISA, clone supernatant, competitor PD-L1.hFc detected with anti-human Fc HRP
Target sequence in this assay (Q15116 25-170 limits assumed): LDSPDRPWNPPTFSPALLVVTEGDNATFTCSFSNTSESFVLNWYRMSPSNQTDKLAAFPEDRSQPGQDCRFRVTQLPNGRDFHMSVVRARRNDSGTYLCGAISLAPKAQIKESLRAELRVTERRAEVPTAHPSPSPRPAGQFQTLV

PD-1 [2] = biological target: PD-1 (UniProt Q15116); assay: ELISA, TG1 supernatant on coated PD-1, anti-c-myc HRP
Target sequence in this assay (Q15116 25-170 limits assumed): as above

[3] = biological target: PD-1 (CD28 family protein, ACROBiosystems) (UniProt Q15116); assay: ELISA on coated protein, anti-human Fc HRP
Sequence of PD-1 (CD28 family protein, ACROBiosystems) (Q15116 25-167 limits assumed): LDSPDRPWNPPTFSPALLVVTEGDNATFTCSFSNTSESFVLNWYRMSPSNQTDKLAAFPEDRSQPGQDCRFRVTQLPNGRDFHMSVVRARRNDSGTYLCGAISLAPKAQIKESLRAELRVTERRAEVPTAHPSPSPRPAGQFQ

[4] = biological target: cynomolgus monkey PD-1 protein (cynomolgus monkey) (UniProt B0LAJ3); assay: ELISA on coated protein, anti-human Fc HRP
Sequence of cynomolgus monkey PD-1 protein (cynomolgus monkey) (B0LAJ3 entry or part of it limits assumed): as the sequence (Q15116 25-170 limits assumed) above, with D2E, P10A, V19L, T35A, Q75R, T144A counted along it

PD-1 [5] = biological target: PD-1 (UniProt Q15116); assay: ELISA on coated protein, anti-human Fc HRP
Target sequence in this assay (Q15116 25-167 limits assumed): as the sequence (Q15116 25-167 limits assumed) above

Binder | OD450, PD-L1 binding with PD-1 (PD-1 [1]) [OD450] | OD450, clone binding with PD-1 (PD-1 [2]) [OD450] | ELISA (OD) [3] | ELISA (OD) [4] | ELISA (OD) (PD-1 [5])
NB211 (VHH) VHH: EVQVVETGGGLAQAGGSLRLSCAASGRTFSGYTVGWYRQSPGKEREFVAAISYSGGSTDYADSVKGRFTISRDNANNTVYLQMGSLKAEDTAVYYCNRVIRGTRDPSIYYVMDYWGKGTLVTVSS | 2.21 | 2.71 |  |  | 
NB182 (Fc fusion, not shown: a dimerising Fc or GST) heavy: QVQLVESGGGLVQAGGSLRLSCAASGDTSFISAAGWYRQAPGKERELVAAITNTGITYYPDSVKGRFTISRDNAKNTVYLQMNNLKPEDTAVYYCNAGAPPPGGLGYDESDYWGQGTQVTVSS | 0.213 | 3.08 | 2.06 OD and 2.09 OD and 2.29 OD | 2.07 OD and 2.08 OD and 1.95 OD | 2.17 OD and 2.13 OD and 2.1 OD
NB194 (Fc fusion, not shown: a dimerising Fc or GST) heavy: QVQLVETGGGLVRAGGSLRLSCTASGRPFSIYDMGWFRQAPDKERESVAVINLSRGDTYYADSVKGRFTISLDSAKNTVYLQMNSLKPEDTAVYSCGVDRRQYGLGIPPLADHWGQGTQVTVSS | 0.152 | 2.83 | 2.03 OD and 1.96 OD and 2.27 OD | 2.23 OD and 2.17 OD and 2.1 OD | 2.22 OD and 1.95 OD and 2.11 OD
NB215 (VHH) VHH: EVQVVESGGGLVQAGDSLRLSCAASGGTISGYEMGWFRQAPGKEREFVAGISRNGRSTGYSDSAKDRFTISRDNAKNTVYLQMNSLKPEDTAVYYCAAGLKADYGDSYVDTSTRNYNYWGQGTQVTVSS | 1.27 | 3.29 |  |  | 

Second part, the binder after the results:

OD450, PD-L1 binding with PD-1 (PD-1 [1]) [OD450] | OD450, clone binding with PD-1 (PD-1 [2]) [OD450] | ELISA (OD) [3] | ELISA (OD) [4] | ELISA (OD) (PD-1 [5]) | Binder
2.21 | 2.38 |  |  |  | NB220 (VHH) VHH: QVQLQESGGGLLQAGDSLRLSCIVSGRTFSSYAIGWFRQAPGKEREFVAGINWSGRSQYYSESVKDRFTVSIDNAKNTVYLQMNSLKPEDTAVYYCAAERHLGVPTVRDDEYDDWGQGTQVTVSS
2.45 | 2.75 |  |  |  | NB216 (VHH) VHH: QVQLVESGGGLVRAGDSLTLSCAASGRTFSSVPMGWFRQAPGNQREFVAAISKSGGSAGYADSVKDRSTISRDNAKNTIYLQMNSLKPEDTAVYYCAASSYDFCSTHGCYDYWGQGTQVTISS
2.32 | 2.62 |  |  |  | NB218 (VHH) VHH: QLQLVESGGGLVQAGDSLRLSCAASGRTFSSIAMGWFRQAPGKEREFVAAISRSGGSAGYADSVKDRSTIVRDNTKNTVYLQMNSLKPEDTAVYFCAASDYDFCSTHGCYDYWGQGTQVTISS
